# Measurements reported in paper PMC10359466.
# T1: TbRPA1 DBD-AB (Trypanosoma brucei, UniProt Q384B5 1-257)
# T1 sequence: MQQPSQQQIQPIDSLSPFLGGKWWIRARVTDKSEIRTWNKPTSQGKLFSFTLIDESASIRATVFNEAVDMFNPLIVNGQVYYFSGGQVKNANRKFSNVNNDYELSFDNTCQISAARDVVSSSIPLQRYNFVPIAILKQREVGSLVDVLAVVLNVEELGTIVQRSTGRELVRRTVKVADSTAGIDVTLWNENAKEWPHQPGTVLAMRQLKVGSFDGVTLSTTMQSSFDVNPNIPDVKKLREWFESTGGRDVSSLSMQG
# Legend:
# HsRPA1 DBD-AB = HsRPA1 DBD-AB (Homo sapiens, UniProt P27694 181-427); assay: MST; 20 mM Tris pH 7.5, 10 mM NaCl, 10 mM MgCl2, 2 mM DTT, 10% glycerol, 0.1 mg/ml BSA, 15 min, room temperature; EMSA 2 nM probe (gel at 4 C), MST 10 nM probe; conditions: protein: recombinant; tags: 6xHis (pET28a); label: 5' Cy5 (MST) or 5' IRDye800 (EMSA); single strand
# Sequence of HsRPA1 DBD-AB (P27694 181-427): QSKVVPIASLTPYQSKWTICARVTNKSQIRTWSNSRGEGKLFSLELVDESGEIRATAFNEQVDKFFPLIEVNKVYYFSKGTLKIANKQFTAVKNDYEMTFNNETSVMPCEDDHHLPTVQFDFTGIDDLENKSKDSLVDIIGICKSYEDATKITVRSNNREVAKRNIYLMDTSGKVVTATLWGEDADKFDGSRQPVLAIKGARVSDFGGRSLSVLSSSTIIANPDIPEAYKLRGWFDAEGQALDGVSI
# TbRPA1 DBD-AB S105T = TbRPA1 DBD-AB S105T (Trypanosoma brucei, UniProt Q384B5 1-257, S105T); assay: as above; conditions: protein: recombinant; tags: N-term 6xHis; label: 5' Cy5 (MST) or 5' IRDye800 (EMSA); single strand
# TbRPA1 DBD-AB = biological target: T1, TbRPA1 DBD-AB; assay: as above; conditions: protein: recombinant; tags: N-term 6xHis (pET28a); label: 5' Cy5 (MST) or 5' IRDye800 (EMSA); single strand
# TcRPA1 DBD-AB T105S = TcRPA1 DBD-AB T105S (Trypanosoma cruzi, UniProt Q4DXC9 2-257, T105S); assay: as above; conditions: protein: recombinant; tags: N-term 6xHis; label: 5' Cy5 (MST) or 5' IRDye800 (EMSA); single strand
# TbRPA1 DBD-AB W188A = TbRPA1 DBD-AB W188A (Trypanosoma brucei, UniProt Q384B5 1-257, W188A); assay: EMSA, MST; 20 mM Tris pH 7.5, 10 mM NaCl, 10 mM MgCl2, 2 mM DTT, 10% glycerol, 0.1 mg/ml BSA, 15 min, room temperature; EMSA 2 nM probe (gel at 4 C), MST 10 nM probe; conditions: protein: recombinant; tags: N-term 6xHis; label: 5' Cy5 (MST) or 5' IRDye800 (EMSA); single strand
# TbRPA1 DBD-AB F64A = TbRPA1 DBD-AB F64A (Trypanosoma brucei, UniProt Q384B5 1-257, F64A); assay: as above; conditions: protein: recombinant; tags: N-term 6xHis; label: 5' Cy5 (MST) or 5' IRDye800 (EMSA); single strand
Binder,Kd (HsRPA1 DBD-AB) [nM],Kd (TbRPA1 DBD-AB S105T) [nM],Kd (TbRPA1 DBD-AB) [nM],Kd (TcRPA1 DBD-AB T105S) [nM],binding result (TbRPA1 DBD-AB W188A),binding result (TbRPA1 DBD-AB F64A)
TTTTTTTTTTTTTTTTTTTTTTTTTTTTTTTT (ssDNA) [dT32],48 ± 37.4,21.9 ± 2.7,24.6 ± 12.4,52.4 ± 27.9,no binding,no binding
TTTTTTTTTTTTTTTTTTTT (ssDNA) [dT20],,,30.5,,,
